Measurements taken from publication PMC9482650, “Quantitative fragmentomics allow affinity mapping of interactomes” (Nature Communications, 2022).

Columns and labels:
Test in all cases: holdup assay
Set-up in all cases: key: below the threshold = too weak to quantify, mostly under pKd 3.1 to 4
Conditions in all cases: plain residues with an end cap or a label only (N-terminal biotin on a linker: ado-ado)
[1] = molecular target: MAST1, Q9Y2H9
[2] = molecular target: TJP1_2, Q07157
[3] = molecular target: T1, SHANK1, Q9Y566
T1 sequence (Q9Y566 658-767, limits assumed, looked up): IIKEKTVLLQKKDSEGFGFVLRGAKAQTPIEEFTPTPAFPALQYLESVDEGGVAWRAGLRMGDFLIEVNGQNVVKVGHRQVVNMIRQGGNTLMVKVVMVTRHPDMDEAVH

[4] = molecular target: Inadl_8, Q8NI35
[5] = molecular target: IL16_3, Q14005
[6] = molecular target: T2, DLG3_1, Q92796
T2 sequence (Q92796 125-227, limits assumed, looked up): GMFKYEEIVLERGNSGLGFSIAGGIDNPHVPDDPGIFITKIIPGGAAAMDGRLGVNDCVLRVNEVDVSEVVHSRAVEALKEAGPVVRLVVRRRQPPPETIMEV

[7] = molecular target: T3, PARD3B_1, Q8TEW8
T3 sequence (Q8TEW8 196-299, limits assumed, looked up): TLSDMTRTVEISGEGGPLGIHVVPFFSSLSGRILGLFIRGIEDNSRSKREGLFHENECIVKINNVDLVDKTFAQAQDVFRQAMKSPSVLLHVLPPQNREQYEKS

[8] = molecular target: T4, SNTG2, Q9NY99
T4 sequence (Q9NY99 68-166, limits assumed, looked up): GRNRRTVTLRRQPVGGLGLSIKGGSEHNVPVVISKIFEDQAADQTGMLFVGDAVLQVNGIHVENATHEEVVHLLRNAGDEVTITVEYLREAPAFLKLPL

[9] = molecular target: LNX1_1, Q8TBB1
[10] = molecular target: SCRIB_2, Q14160
[11] = molecular target: GRIP2_4, Q9C0E4
[12] = molecular target: GOPC, Q9HD26
[13] = molecular target: GORASP2, Q9H8Y8
[14] = molecular target: T5, DVL3, Q92997
T5 sequence (Q92997 244-331, limits assumed, looked up): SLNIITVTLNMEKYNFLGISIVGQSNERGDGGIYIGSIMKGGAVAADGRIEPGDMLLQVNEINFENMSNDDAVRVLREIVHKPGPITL

[15] = molecular target: GRID2IP_2, A4D2P6
[16] = molecular target: T6, RHPN1, Q8TCX5
T6 sequence (Q8TCX5 508-602, limits assumed, looked up): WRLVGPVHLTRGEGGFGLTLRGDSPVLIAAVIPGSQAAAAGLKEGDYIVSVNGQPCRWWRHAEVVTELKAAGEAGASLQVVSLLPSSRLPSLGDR

[17] = molecular target: FRMPD2_1, Q68DX3
[18] = molecular target: T7, APBA2_1, Q99767
T7 sequence (Q99767 563-664, limits assumed, looked up): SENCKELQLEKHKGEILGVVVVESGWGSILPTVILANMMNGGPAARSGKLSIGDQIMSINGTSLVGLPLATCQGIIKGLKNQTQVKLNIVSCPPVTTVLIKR

[19] = molecular target: LIMK2, P53671
[20] = molecular target: MAST2, Q6P0Q8
[21] = molecular target: SCRIB_1, Q14160
[22] = molecular target: LNX1_2, Q8TBB1
[23] = molecular target: T8, NHERF3_4, Q5T2W1
T8 sequence (Q5T2W1 373-468, limits assumed, looked up): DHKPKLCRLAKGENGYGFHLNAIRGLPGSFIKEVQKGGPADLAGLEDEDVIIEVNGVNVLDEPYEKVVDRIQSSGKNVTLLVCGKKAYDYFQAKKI

[24] = molecular target: T9, DLG3_2, Q92796
T9 sequence (Q92796 221-321, limits assumed, looked up): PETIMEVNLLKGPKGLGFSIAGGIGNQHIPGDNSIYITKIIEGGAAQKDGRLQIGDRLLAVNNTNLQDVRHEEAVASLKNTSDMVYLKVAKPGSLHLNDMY

[25] = molecular target: T10, MPDZ_12, O75970
T10 sequence (O75970 1857-1958, limits assumed, looked up): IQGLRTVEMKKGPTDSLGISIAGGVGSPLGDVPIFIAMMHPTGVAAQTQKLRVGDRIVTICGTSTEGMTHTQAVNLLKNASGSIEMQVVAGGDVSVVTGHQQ

[26] = molecular target: PARD3_3, Q8TEW0
[27] = molecular target: Inadl_6, Q8NI35
Chain of Inadl_6, Q8NI35 (Q8NI35 1058-1167): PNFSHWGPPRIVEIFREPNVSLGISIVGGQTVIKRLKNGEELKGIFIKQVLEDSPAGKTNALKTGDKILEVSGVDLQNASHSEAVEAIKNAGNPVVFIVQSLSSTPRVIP

Chain of SCRIB_2, Q14160 (Q14160 857-960): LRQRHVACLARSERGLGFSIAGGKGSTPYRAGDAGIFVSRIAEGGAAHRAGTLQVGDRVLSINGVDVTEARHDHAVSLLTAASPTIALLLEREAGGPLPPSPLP
Chain of SCRIB_1, Q14160 (Q14160 718-814): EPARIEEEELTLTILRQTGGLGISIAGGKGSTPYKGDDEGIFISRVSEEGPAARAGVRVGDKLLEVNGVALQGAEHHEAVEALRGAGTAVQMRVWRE
Chain of LIMK2, P53671 (P53671 143-248): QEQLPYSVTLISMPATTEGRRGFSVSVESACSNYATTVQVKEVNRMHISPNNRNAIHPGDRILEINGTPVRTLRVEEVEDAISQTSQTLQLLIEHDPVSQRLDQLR
Chain of LNX1_1, Q8TBB1 (Q8TBB1 261-371): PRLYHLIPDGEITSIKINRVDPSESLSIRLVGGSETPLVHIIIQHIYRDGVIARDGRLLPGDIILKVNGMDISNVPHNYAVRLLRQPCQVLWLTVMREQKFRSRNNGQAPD
Chain of PARD3_3, Q8TEW0 (Q8TEW0 582-685): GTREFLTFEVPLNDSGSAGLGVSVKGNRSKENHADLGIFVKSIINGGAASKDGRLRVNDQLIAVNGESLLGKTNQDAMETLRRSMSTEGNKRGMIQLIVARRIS
Chain of GRID2IP_2, A4D2P6 (A4D2P6 272-370): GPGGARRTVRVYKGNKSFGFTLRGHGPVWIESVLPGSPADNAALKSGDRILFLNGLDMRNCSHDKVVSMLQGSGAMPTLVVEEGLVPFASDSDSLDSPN
Chain of GRIP2_4, Q9C0E4 (Q9C0E4 446-548): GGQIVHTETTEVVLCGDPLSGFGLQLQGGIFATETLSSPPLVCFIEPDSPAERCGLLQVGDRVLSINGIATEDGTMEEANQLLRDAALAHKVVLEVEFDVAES
Chain of TJP1_2, Q07157 (Q07157 181-274): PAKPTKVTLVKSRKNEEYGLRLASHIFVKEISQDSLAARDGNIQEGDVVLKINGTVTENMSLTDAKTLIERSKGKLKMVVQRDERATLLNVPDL
Chain of MAST2, Q6P0Q8 (Q6P0Q8 1099-1202): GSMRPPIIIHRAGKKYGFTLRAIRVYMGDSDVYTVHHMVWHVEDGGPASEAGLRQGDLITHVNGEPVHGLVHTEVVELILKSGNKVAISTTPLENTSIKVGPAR
Chain of Inadl_8, Q8NI35 (Q8NI35 1425-1530): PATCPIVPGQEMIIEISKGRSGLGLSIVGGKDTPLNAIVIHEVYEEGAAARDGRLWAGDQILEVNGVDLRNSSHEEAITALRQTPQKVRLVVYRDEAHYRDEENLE
Chain of LNX1_2, Q8TBB1 (Q8TBB1 371-470): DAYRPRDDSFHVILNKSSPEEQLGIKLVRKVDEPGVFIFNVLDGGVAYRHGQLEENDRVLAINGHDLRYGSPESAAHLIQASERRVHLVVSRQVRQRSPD
Chain of MAST1, Q9Y2H9 (Q9Y2H9 962-1065): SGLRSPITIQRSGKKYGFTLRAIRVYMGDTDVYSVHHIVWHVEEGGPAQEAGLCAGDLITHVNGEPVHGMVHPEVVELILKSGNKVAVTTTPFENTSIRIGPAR
Chain of IL16_3, Q14005 (Q14005 1107-1207): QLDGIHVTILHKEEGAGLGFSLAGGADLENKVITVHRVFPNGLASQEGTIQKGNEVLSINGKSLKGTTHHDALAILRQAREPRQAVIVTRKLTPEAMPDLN
Chain of FRMPD2_1, Q68DX3 (Q68DX3 770-861): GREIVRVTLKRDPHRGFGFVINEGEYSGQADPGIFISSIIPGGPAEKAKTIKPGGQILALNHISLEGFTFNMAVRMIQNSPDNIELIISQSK

Binder: PEEGKKQSQC [GAGE12J, A6NER3]
- pKd [1]: 3.6
- pKd [2]: below the threshold
- pKd [3]: below the threshold
- pKd [4]: 3.5
- pKd [5]: below the threshold
- pKd [6]: below the threshold
- pKd [7]: below the threshold
- pKd [8]: 3.51
- pKd [9]: below the threshold
- pKd [10]: below the threshold
- pKd [11]: below the threshold
- pKd [12]: below the threshold
- pKd [13]: below the threshold
- pKd [14]: below the threshold
- pKd [15]: 3.49
- pKd [16]: below the threshold
- pKd [17]: below the threshold
- pKd [18]: below the threshold
- pKd [19]: below the threshold
- pKd [20]: 4.33
- pKd [21]: below the threshold
- pKd [22]: below the threshold
- pKd [23]: below the threshold
- pKd [24]: 4.04
- pKd [25]: below the threshold
- pKd [26]: below the threshold
- pKd [27]: below the threshold

Binder: PDSNPEESSV [SEMA4C, Q9C0C4]
- pKd [1]: 4.86
- pKd [2]: below the threshold
- pKd [3]: below the threshold
- pKd [4]: 3.66
- pKd [5]: below the threshold
- pKd [6]: below the threshold
- pKd [7]: below the threshold
- pKd [8]: 4.04
- pKd [9]: below the threshold
- pKd [10]: 4.43
- pKd [11]: below the threshold
- pKd [12]: 3.67
- pKd [13]: below the threshold
- pKd [14]: below the threshold
- pKd [15]: 3.9
- pKd [16]: 4.7
- pKd [17]: below the threshold
- pKd [18]: below the threshold
- pKd [19]: below the threshold
- pKd [20]: 5.36
- pKd [21]: 4.15
- pKd [22]: below the threshold
- pKd [23]: below the threshold
- pKd [24]: 3.73
- pKd [25]: below the threshold
- pKd [26]: below the threshold
- pKd [27]: below the threshold

Binder: NPETRDETQL [KCNT1, Q5JUK3]
- pKd [1]: 4.97
- pKd [2]: below the threshold
- pKd [3]: 4.14
- pKd [4]: below the threshold
- pKd [5]: below the threshold
- pKd [6]: below the threshold
- pKd [7]: 3.92
- pKd [8]: 4.08
- pKd [9]: below the threshold
- pKd [10]: 4.05
- pKd [11]: below the threshold
- pKd [12]: 3.76
- pKd [13]: below the threshold
- pKd [14]: below the threshold
- pKd [15]: 3.85
- pKd [16]: 4.43
- pKd [17]: below the threshold
- pKd [18]: below the threshold
- pKd [19]: below the threshold
- pKd [20]: 5.68
- pKd [21]: 4.46
- pKd [22]: below the threshold
- pKd [23]: below the threshold
- pKd [24]: below the threshold
- pKd [25]: below the threshold
- pKd [26]: 3.64
- pKd [27]: 3.76

Binder: SSGSTSSSRI [ADGRG1, Q9Y653]
- pKd [1]: 4
- pKd [2]: below the threshold
- pKd [3]: 4.31
- pKd [4]: 3.7
- pKd [5]: below the threshold
- pKd [6]: 3.54
- pKd [7]: 3.93
- pKd [8]: 3.68
- pKd [9]: 3.66
- pKd [10]: below the threshold
- pKd [11]: below the threshold
- pKd [12]: 4
- pKd [13]: 3.57
- pKd [14]: below the threshold
- pKd [15]: 4.02
- pKd [16]: 3.93
- pKd [17]: below the threshold
- pKd [18]: below the threshold
- pKd [19]: below the threshold
- pKd [20]: 4.68
- pKd [21]: below the threshold
- pKd [22]: below the threshold
- pKd [23]: below the threshold
- pKd [24]: 3.75
- pKd [25]: below the threshold
- pKd [26]: below the threshold
- pKd [27]: below the threshold

Binder: PKLMGVETVV [DUSP10, Q9Y6W6]
- pKd [1]: 4.58
- pKd [2]: 3.67
- pKd [3]: below the threshold
- pKd [4]: 3.5
- pKd [5]: below the threshold
- pKd [6]: 4.63
- pKd [7]: below the threshold
- pKd [8]: 4.51
- pKd [9]: 4.06
- pKd [10]: 3.98
- pKd [11]: below the threshold
- pKd [12]: 4.25
- pKd [13]: 5.03
- pKd [14]: below the threshold
- pKd [15]: below the threshold
- pKd [16]: 4.42
- pKd [17]: below the threshold
- pKd [18]: below the threshold
- pKd [19]: below the threshold
- pKd [20]: 5.17
- pKd [21]: 4.28
- pKd [22]: 3.96
- pKd [23]: below the threshold
- pKd [24]: 5.2
- pKd [25]: below the threshold
- pKd [26]: 3.75
- pKd [27]: 3.53

Binder: ASGLDKRDYV [CLDN9, O95484]
- pKd [1]: below the threshold
- pKd [2]: below the threshold
- pKd [3]: below the threshold
- pKd [4]: 3.91
- pKd [5]: below the threshold
- pKd [6]: below the threshold
- pKd [7]: below the threshold
- pKd [8]: below the threshold
- pKd [9]: below the threshold
- pKd [10]: below the threshold
- pKd [11]: below the threshold
- pKd [12]: below the threshold
- pKd [13]: below the threshold
- pKd [14]: below the threshold
- pKd [15]: below the threshold
- pKd [16]: below the threshold
- pKd [17]: below the threshold
- pKd [18]: below the threshold
- pKd [19]: below the threshold
- pKd [20]: 3.5
- pKd [21]: below the threshold
- pKd [22]: below the threshold
- pKd [23]: below the threshold
- pKd [24]: below the threshold
- pKd [25]: below the threshold
- pKd [26]: below the threshold
- pKd [27]: below the threshold
